Experiments:
[1] = target: T1, C8 acylated human ghrelin (1-28) (human, n-octanoyl group on the serine at position three (Ser3)); assay: KinExA solution equilibrium; constant Fab, ghrelin titrated, free Fab captured on biotin-C8-ghrelin streptavidin beads
T1 construct: 28-residue peptide hormone; In the first KinExA experiment a biotinylated form was on the beads and the unlabelled peptide was titrated in solution; also called Human C8 ghrelin; human C8 acylated ghrelin (1-28)
Method: The KinExA 3000 instrument, manufactured by Sapidyne, is used to measure binding kinetics. Briefly, streptavidin is covalently coupled to azlactone beads. Biotinylated C8 acylated human ghrelin (1-28) is subsequently bound to these streptavidin beads. The binding of free anti-ghrelin Fab to the beads is detected on the instrument.
To measure Kds, individual tubes containing a constant concentration of 20-100 pM of Fab with decreasing serially diluted C8 acylated human ghrelin (1-28) are incubated for 18 h at 20° C. in 0.1% BSA, PBS. […] For example, clone 4a1 is used at a constant concentration of 20 pM and individual tubes are incubated with 0-20 nM of ghrelin. Incubations for other Fabs are set in a similar manner. After incubation, free Fab in each equilibrated sample is determined on the KinExA 3000 instrument according to the manufacturer's instructions. Kd values are determined using the KinExA 3000 software.

[2] = target: T1, C8 acylated human ghrelin (1-28); assay: BIAcore SPR; Mab amine-coupled to CM5 chip, ghrelin injected, n = 2
Method: (§1) The affinity (Kd) of humanized C2 anti-ghrelin Mabs is measured using a BIAcore® 2000 instrument containing a CM5 sensor chip. The BIAcore® utilizes the optical properties of surface plasmon resonance to detect alterations in protein concentration of interacting molecules within a dextran biosensor matrix. Except where noted, all reagents and materials are purchased from BIAcore® AB (Uppsala, Sweden). All measurements are performed at about 25° C. All samples containing either rat or human ghrelin (full length, C8- or C10-acylated, or desacylated) and anti-ghrelin Fab or Mab are diluted in HBS-EP buffer (150 mM sodium chloride, 3 mM EDTA, 0.005% (w/v) surfactant P-20, and 10 mM HEPES, pH 7.4). A capture antibody, goat anti-mouse kappa (Southern Biotechnology, Inc), or goat anti-mouse Fc gamma (Jackson ImmunoResearch), is immobilized onto flow cells using amine-coupling chemistry. Flow cells (1-4) are activated for 7 minutes with a 1:1 mixture of 0.1 M N-hydroxysuccinimide and 0.1 M 3-(N,N-dimethylamino)propyl-N-ethylcarbodiimide at a flow rate of 10 μl/min. The capture antibody, for example goat anti-mouse kappa, is diluted to 30 μg/mL in 10 mM sodium acetate, pH 4.5, and manually injected over all four flow cells at a flow rate of 10 μL/min. The surface density is monitored, and additional capture antibody is injected as needed to each individual cell until all flow cells reach a surface density of 4500-5000 response units (RU). Surfaces are blocked with a seven minute injection of 1 M ethanolamine-HCl, pH 8.5(10 μL/min). To ensure complete removal of any noncovalently bound capture antibody, 15 μL of 10 mM glycine, pH 1.5, are injected twice. Running buffer for kinetic experiments is HBS-EP buffer (150 mM sodium chloride, 3 mM EDTA, 0.005% (w/v) surfactant P-20, and 10 mM HEPES, pH 7.4). For C2_{—}4A1, 5A1, and 7A1, the antibody is directly coupled to a CM5 chip using the amine-coupling chemistry described above, aiming for a surface density of between 800-1000 RU.
(§2) Collection of kinetic binding data is performed at maximum flow rate (100 μL/min) and a low surface density to minimize mass transport effects.

[3] = target: T2, Rat C8 ghrelin (28 amino acids, C8-acylated) (rat, UniProt Q9QYH7 24-51, C8-acylated (n-octanoyl; octanoylated at Ser3 as told for rat ghrelin in paragraph 40)); assay: as above
T2 construct: mature; the assay used the 28-residue peptide; also called C8-acylated rat ghrelin
T2 peptide (looked up): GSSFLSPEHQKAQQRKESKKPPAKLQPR
Method: as §1, §2

Human C10 ghrelin (1-28) [4] = target: T3, Human C10 ghrelin (1-28) (human, n-decanoyl group on Ser3 (C10-acylated)); assay: BIAcore SPR; Fab captured by goat anti-mouse kappa, ghrelin injected, n = 3
T3 construct: also called decanoyl ghrelin (1-28)
T3 sequence (peptide, as listed by the source): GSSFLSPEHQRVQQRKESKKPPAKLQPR
Method: as §1, with “RU. […]” for “RU.”

[5] = target: T2, Rat C8 ghrelin (28 amino acids, …); assay: BIAcore SPR; Fab captured by goat anti-mouse kappa, ghrelin injected, n = 5
Method: as §1, with “RU. […]” for “RU.”

[6] = target: T1, C8 acylated human ghrelin (1-28); assay: BIAcore SPR; Fab captured by goat anti-mouse kappa, ghrelin injected, n = 8
Method: as §1, with “RU. […]” for “RU.”

[7] = target: T1, C8 acylated human ghrelin (1-28); assay: KinExA solution equilibrium; C8 ghrelin coupled to azlactone beads, n-curve analysis, n = 3
Method: (§3) Briefly, 10 μg human C8 acylated ghrelin (1-28) is covalently coupled to 50 mg azlactone beads (Sapidyne). […] For example, anti-ghrelin C2 murine Fab is used at a constant concentration of either 60, 600, or 6000 pM, and individual tubes are incubated with 0-60, 0-100, or 0-1000 nM of ghrelin, respectively. After the incubation, free Fab or Mab in each equilibrated sample is determined on the KinExA 3000 instrument according to the manufacturer's instructions. Kd values are assessed using the KinEkA 3000 n-curve analysis software.

[8] = target: T1, C8 acylated human ghrelin (1-28); assay: KinExA solution equilibrium; C8 ghrelin coupled to azlactone beads, n-curve analysis, n = 2
Method: as §3

Human C10 ghrelin (1-28) [9] = target: T3, Human C10 ghrelin (1-28); assay: BIAcore SPR; Mab captured by goat anti-mouse kappa or anti-mouse Fc gamma, ghrelin injected, n = 6
Method: as §1, with “RU. […]” for “RU.”

[10] = target: T2, Rat C8 ghrelin (28 amino acids, …); assay: BIAcore SPR; Mab captured by goat anti-mouse kappa or anti-mouse Fc gamma, ghrelin injected, n = 7
Method: as §1, with “RU. […]” for “RU.”

[11] = target: T1, C8 acylated human ghrelin (1-28); assay: BIAcore SPR; Mab captured by goat anti-mouse kappa or anti-mouse Fc gamma, ghrelin injected, n = 11
Method: as §1, with “RU. […]” for “RU.”

B1: C2 chimeric Fab (heavy and light chain variable regions of C2 murine Fab 1111 fused to human CH1 and CL domains) (Fab, V domains shown)
VH: EIQLQQSGAELMKPGASVKLSCKATGYIFTGYWIEWVKQRPGHGLEWIGEILPGSGSTNYNEKFKGKATFTADTSSNTANMQLSSLTTEDSAIYYCARYPQFRLRRERIAYWGQGTLVTVSV
VL: DLVLTQSPASLAVSLGQRATISCRASKSVSTSGYSYMHWYQQKPGQPPKLLIYLASNLESGVPARFSGSGSGTDFTLNIHPVEEEDAATYYCQHSRELPYTFGAGTKLELKR
Kd [1]: 1.1 nM

B2: Mab C2 (murine VH/VL Fab 1111 sequences with rat Fc chimera) (antibody, V domains shown)
VH: EIQLQQSGAELMKPGASVKLSCKATGYIFTGYWIEWVKQRPGHGLEWIGEILPGSGSTNYNEKFKGKATFTADTSSNTANMQLSSLTTEDSAIYYCARYPQFRLRRERIAYWGQGTLVTVSV
VL: DLVLTQSPASLAVSLGQRATISCRASKSVSTSGYSYMHWYQQKPGQPPKLLIYLASNLESGVPARFSGSGSGTDFTLNIHPVEEEDAATYYCQHSRELPYTFGAGTKLELKR
notes: Chimera with rat Fc
Kd [2]: 0.363 nM
koff [2]: 0.0028 s⁻¹
kon [2]: 7.4e+06 M⁻¹ s⁻¹
Kd [3]: 0.687 nM
koff [3]: 0.0019 s⁻¹
kon [3]: 3.3e+06 M⁻¹ s⁻¹

B3: C2 murine Fab 1111 (Fab, V domains shown)
VH: EIQLQQSGAELMKPGASVKLSCKATGYIFTGYWIEWVKQRPGHGLEWIGEILPGSGSTNYNEKFKGKATFTADTSSNTANMQLSSLTTEDSAIYYCARYPQFRLRRERIAYWGQGTLVTVSV
VL: DLVLTQSPASLAVSLGQRATISCRASKSVSTSGYSYMHWYQQKPGQPPKLLIYLASNLESGVPARFSGSGSGTDFTLNIHPVEEEDAATYYCQHSRELPYTFGAGTKLELKR
notes: also called Anti-ghrelin C2 Fab (Fab1111)
Kd (Human C10 ghrelin (1-28) [4]): 4.55 nM
koff (Human C10 ghrelin (1-28) [4]): 0.0088 s⁻¹
kon (Human C10 ghrelin (1-28) [4]): 2.1e+06 M⁻¹ s⁻¹
Kd [5]: 1.23 nM
koff [5]: 0.0016 s⁻¹
kon [5]: 1.4e+06 M⁻¹ s⁻¹
Kd [6]: 0.953 nM
koff [6]: 0.0016 s⁻¹
kon [6]: 1.7e+06 M⁻¹ s⁻¹
Kd [7]: 1.03 nM

B4: Mab C2 (full murine sequence, i.e., Fab 1111 VH/VL and murine Fc) (antibody, V domains shown)
VH: EIQLQQSGAELMKPGASVKLSCKATGYIFTGYWIEWVKQRPGHGLEWIGEILPGSGSTNYNEKFKGKATFTADTSSNTANMQLSSLTTEDSAIYYCARYPQFRLRRERIAYWGQGTLVTVSV
VL: DLVLTQSPASLAVSLGQRATISCRASKSVSTSGYSYMHWYQQKPGQPPKLLIYLASNLESGVPARFSGSGSGTDFTLNIHPVEEEDAATYYCQHSRELPYTFGAGTKLELKR
notes: Full-length murine antibody with a kappa light chain (it was captured with anti-mouse kappa); also called Anti-ghrelin C2 Mab
Kd [8]: 1.44 nM
Kd (Human C10 ghrelin (1-28) [9]): 4.1 nM
koff (Human C10 ghrelin (1-28) [9]): 0.0092 s⁻¹
kon (Human C10 ghrelin (1-28) [9]): 1.9e+06 M⁻¹ s⁻¹
Kd [10]: 2.6 nM
koff [10]: 0.0018 s⁻¹
kon [10]: 800000 M⁻¹ s⁻¹
Kd [11]: 0.779 nM
koff [11]: 0.0015 s⁻¹
kon [11]: 2.4e+06 M⁻¹ s⁻¹

B5: Humanized, affinity matured C2 anti-ghrelin Fab 7b2 (Fab, V domains shown)
VH: QVQLVQSGAEVKKPGASVKVSCKATGYIFTGYWIEWVRQAPGQGLEWMGDILPGSGSPNYNEKFKGRVTMTTDTSTSTAYMELRSLRSDDTAVYYCARYPIFRLRTERIAEWGQGTLVTVSS
VL: DIVMTQSPDSLAVSLGERATINCRASKSVSLLGYSYMHWYQQKPGQPPKLLIYFASNLESGVPDRFSGSGSGTDFTLTISSLQAEDVAVYYCQHSIEEPYTFGQGTKLEIK
notes: Fab; The constant domains are not described
Kd [1]: 0.0253 nM

B6: Mab C2_7A1 (human VH/VL with rat Fc chimera) (antibody, V domains shown)
VH: QVQLVQSGAEVKKPGASVKVSCKATGYIFTGYWIEWVRQAPGQGLEWMGDILPGSGSPNYNEKFKGRVTMTTDTSTSTAYMELRSLRSDDTAVYYCARYPIFRPRTERIAYWGQGTLVTVSS
VL: DIVMTQSPDSLAVSLGERATINCRASKSVSLLGYSYMHWYQQKPGQPPKLLIYFASNLESGVPDRFSGSGSGTDFTLTISSLQAEDVAVYYCQHSVEEPYTFGQGTKLEIK
notes: Humanized VH/VL with rat Fc; The Mab is tied to the Fab 7a1 variable regions by its clone name only
Kd [2]: 0.012 nM
koff [2]: 0.00013 s⁻¹
kon [2]: 1e+07 M⁻¹ s⁻¹

B7: Humanized, affinity matured C2 anti-ghrelin Fab 5a1 (Fab, V domains shown)
VH: QVQLVQSGAEVKKPGASVKVSCKATGYIFTGYWIEWVRQAPGQGLEWMGDILPGSGSPNYNEKFKGRVTMTTDTSTSTAYMELRSLRSDDTAVYYCARYPIFRLRTERIAEWGQGTLVTVSS
VL: DIVMTQSPDSLAVSLGERATINCRASKSVSLSGYSYMHWYQQKPGQPPKLLIYFASNLESGVPDRFSGSGSGTDFTLTISSLQAEDVAVYYCQHSIEEPYTFGQGTKLEIK
notes: Fab; The constant domains are not described for this clone; also called Fab C2-5a1
Kd [1]: 0.001 nM

B8: Mab C2_5A1 (humanized, affinity matured VH/VL (Fab C2-5a1 sequences) with rat Fc chimeric C2 anti-ghrelin antibody) (antibody, V domains shown)
VH: QVQLVQSGAEVKKPGASVKVSCKATGYIFTGYWIEWVRQAPGQGLEWMGDILPGSGSPNYNEKFKGRVTMTTDTSTSTAYMELRSLRSDDTAVYYCARYPIFRLRTERIAEWGQGTLVTVSS
VL: DIVMTQSPDSLAVSLGERATINCRASKSVSLSGYSYMHWYQQKPGQPPKLLIYFASNLESGVPDRFSGSGSGTDFTLTISSLQAEDVAVYYCQHSIEEPYTFGQGTKLEIK
notes: Humanized VH/VL with rat Fc; also called C2-5a1 antibody
Kd [2]: 0.013 nM
koff [2]: 0.00012 s⁻¹
kon [2]: 8.6e+06 M⁻¹ s⁻¹
Kd [3]: 0.02 nM
koff [3]: 0.00012 s⁻¹
kon [3]: 6.6e+06 M⁻¹ s⁻¹

B9: Humanized, affinity matured C2 anti-ghrelin Fab 7a1 (Fab, V domains shown)
VH: QVQLVQSGAEVKKPGASVKVSCKATGYIFTGYWIEWVRQAPGQGLEWMGDILPGSGSPNYNEKFKGRVTMTTDTSTSTAYMELRSLRSDDTAVYYCARYPIFRPRTERIAYWGQGTLVTVSS
VL: DIVMTQSPDSLAVSLGERATINCRASKSVSLLGYSYMHWYQQKPGQPPKLLIYFASNLESGVPDRFSGSGSGTDFTLTISSLQAEDVAVYYCQHSVEEPYTFGQGTKLEIK
notes: Fab; The constant domains are not described for this clone
Kd [1]: 0.0042 nM

Source: patent US20080118498A1 (Eli Lilly, published 2008)
